Experimental findings from ChEMBL document CHEMBL2074015, “Effect of ionization on the variable uptake of valacyclovir via the human intestinal peptide transporter (hPepT1) in CHO cells” (Biopharm Drug Dispos, 2000) are described below.

Common to all, as to conditions: CHO
Substrate in series [1]: CC(C)[C@H](N)C(=O)OCCOCn1cnc2c(=O)nc(N)[nH]c21
Description: TP_TRANSPORTER: uptake (pH 6.2) in PEPT1-expressing CHO cells
Substrate in series [2]: CC(C)[C@H](N)C(=O)OCCOCn1cnc2c(=O)nc(N)[nH]c21
The source holds these as a separate data set.
Description: TP_TRANSPORTER: uptake (pH 5.5) in PEPT1-expressing CHO cells

Substrate in series [3]: CC(C)[C@H](N)C(=O)OCCOCn1cnc2c(=O)nc(N)[nH]c21
The source holds these as a separate data set.
Description: TP_TRANSPORTER: uptake (pH 6.8) in PEPT1-expressing CHO cells

Substrate in series [4]: CC(C)[C@H](N)C(=O)OCCOCn1cnc2c(=O)nc(N)[nH]c21
The source holds these as a separate data set.
Description: TP_TRANSPORTER: uptake (pH 7.5) in PEPT1-expressing CHO cells

Substrate in series [5]: CC(C)[C@H](N)C(=O)OCCOCn1cnc2c(=O)nc(N)[nH]c21
Description: TP_TRANSPORTER: uptake (pH 7.9) in PEPT1-expressing CHO cells
This is another data set of the same source.

B1: Solute carrier family 15 member 1 (Homo sapiens), P46059 (protein)
chain: MGMSKSHSFFGYPLSIFFIVVNEFCERFSYYGMRAILILYFTNFISWDDNLSTAIYHTFVALCYLTPILGALIADSWLGKFKTIVSLSIVYTIGQAVTSVSSINDLTDHNHDGTPDSLPVHVVLSLIGLALIALGTGGIKPCVSAFGGDQFEEGQEKQRNRFFSIFYLAINAGSLLSTIITPMLRVQQCGIHSKQACYPLAFGVPAALMAVALIVFVLGSGMYKKFKPQGNIMGKVAKCIGFAIKNRFRHRSKAFPKREHWLDWAKEKYDERLISQIKMVTRVMFLYIPLPMFWALFDQQGSRWTLQATTMSGKIGALEIQPDQMQTVNAILIVIMVPIFDAVLYPLIAKCGFNFTSLKKMAVGMVLASMAFVVAAIVQVEIDKTLPVFPKGNEVQIKVLNIGNNTMNISLPGEMVTLGPMSQTNAFMTFDVNKLTRINISSPGSPVTAVTDDFKQGQRHTLLVWAPNHYQVVKDGLNQKPEKGENGIRFVNTFNELITITMSGKVYANISSYNASTYQFFPSGIKGFTISSTEIPPQCQPNFNTFYLEFGSAYTYIVQRKNDSCPEVKVFEDISANTVNMALQIPQYFLLTCGEVVFSVTGLEFSYSQAPSNMKSVLQAGWLLTVAVGNIIVLIVAGAGQFSKQWAEYILFAALLLVVCVIFAIMARFYTYINPAEIEAQFDEDEKKNRLEKSNPYFMSGANSQKQM
Regarding B1, the Km (in general, the concentration of substrate that gives half-maximal velocity) in series [1] amounted to 6.6 mM; in series [2], 7.4 mM; in series [3] it was 5.4 mM; in series [4], 2.7 mM; in series [5] it was 2.2 mM.
